T1: A3VP1^AgI/II (Streptococcus mutans UA159, UniProt P23504 386-874)
T1 construct: domain: A3VP1; also called A3VP1 of AgI/II
T1 sequence: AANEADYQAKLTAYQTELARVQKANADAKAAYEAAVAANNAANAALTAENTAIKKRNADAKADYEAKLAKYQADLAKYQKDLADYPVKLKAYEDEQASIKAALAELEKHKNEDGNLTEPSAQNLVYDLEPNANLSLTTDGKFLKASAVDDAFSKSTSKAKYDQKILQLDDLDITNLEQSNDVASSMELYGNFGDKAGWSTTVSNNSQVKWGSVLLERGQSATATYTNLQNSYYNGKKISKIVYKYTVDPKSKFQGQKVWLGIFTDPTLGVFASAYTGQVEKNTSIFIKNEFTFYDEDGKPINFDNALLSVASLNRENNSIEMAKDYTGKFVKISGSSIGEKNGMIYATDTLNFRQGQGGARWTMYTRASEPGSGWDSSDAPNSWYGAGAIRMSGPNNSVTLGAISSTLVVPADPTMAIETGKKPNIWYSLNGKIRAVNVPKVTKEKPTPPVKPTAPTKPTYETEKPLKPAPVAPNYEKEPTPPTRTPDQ

T2: C123^AgI/II (Streptococcus mutans UA159, UniProt P23504 1000-1486)
T2 construct: domain: C123
T2 sequence: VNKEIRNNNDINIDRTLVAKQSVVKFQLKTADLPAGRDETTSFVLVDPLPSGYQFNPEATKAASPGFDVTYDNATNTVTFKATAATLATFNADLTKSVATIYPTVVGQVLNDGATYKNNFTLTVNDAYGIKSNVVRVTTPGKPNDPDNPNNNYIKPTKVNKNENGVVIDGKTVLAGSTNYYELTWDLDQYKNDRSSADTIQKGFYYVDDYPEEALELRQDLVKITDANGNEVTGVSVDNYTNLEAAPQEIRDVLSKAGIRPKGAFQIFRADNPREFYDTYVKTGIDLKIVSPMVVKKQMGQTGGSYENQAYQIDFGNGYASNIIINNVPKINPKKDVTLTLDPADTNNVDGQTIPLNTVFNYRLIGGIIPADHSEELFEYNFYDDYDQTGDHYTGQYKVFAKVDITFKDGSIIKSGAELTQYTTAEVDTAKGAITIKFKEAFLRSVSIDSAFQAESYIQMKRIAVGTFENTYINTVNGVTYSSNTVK

B1: iSRCR1 (Deglycosylated) (receptor)
chain: not shown
notes: domain: SRCR1; also called deglycosylated iSRCR1
B2: FL^SspB (S. gordonii DL1 SspB, residues 39-1433) (other)
chain: DEVTETTSTSTVEVATTGNPATNLPEAQGEMSQVAKESQAKAGSKESALPVEVSSADLDKAVADAKSAGVKVVQDETKDKGTATTATDNAQKQDEIKSDYAKQAEEIKTTTEAYKKEVAAHQAETDKINAENKAADDKYQKDLKSHQEEVEKINTANATAKAEYEAKLAQYQKDLATVKKANEDSQQDYQNKLSAYQTELARVQKANAEAKEAYEKAVKENTAKNEALKVENEAIKQRNETAKATYEAAMKQYEADLAAIKKANEDNDADYQAKLAAYQTELARVQKANAEAKEAYDKAVKENTAKNTAIQAENEAIKQRNETAKATYDAAVKKYEADLAAVKQANATNEADYQAKLAAYQTELARVQKANADAKATYEKAVEDNKAKNAAIKAENEEIKQRNAVAKTDYEAKLAKYEADLAKYKKEFAAYTAALAEAESKKKQDGYLSEPRSQSLNFKSEPNAIRTIDSSVHQYGQQELDALVKSWGISPTNPDRKKSRAYSYFNAINSNNTYAKLVLEKDKPVDVTYTGLKNSSFNGKKISKVVYTYTLKETGFNDGTKMTMFASSDPTVTAWYNDYFTSTNINVKVKFYDEEGQLMNLTGGLVNFSSLNRGNGSGAIDKDAIESVRNFNGRYIPISGSSIKIHENNSAYADSSNAEKSLGARWNTSEWDTTSSPNNWYGAIVGEITQSEISFNMASSKSGNIWFAFNSNINAIGVPTKPVAPTAPTQPMYETEKPLEPAPVAPSYENEPTPPVKTPDQPEPSKPEEPTYETEKPLEPAPVAPSYENEPTPPVKTPDQPEPSKPEEPNYETEKPLEPAPVAPSYENEPTPPVKIPDQPEPSKPEEPTYDPLPTPPLAPTPKQLPTPPVVPTVHFHYSSLLAQPQINKEIKNEDGVDIDRTLVAKQSIVKFELKTEALTAGRPKTTSFVLVDPLPTGYKFDLDATKAASTGFDTTYDEASHTVTFKATDETLATYNADLTKPVETLHPTVVGRVLNDGATYTNNFTLTVNDAYGIKSNVVRVTTPGKPNDPDNPNNNYIKPTKVNKNKEGLNIDGKEVLAGSTNYYELTWDLDQYKGDKSSKEAIQNGFYYVDDYPEEALDVRPDLVKVADEKGNQVSGVSVQQYDSLEAAPKKVQDLLKKANITVKGAFQLFSADNPEEFYKQYVATGTSLVITDPMTVKSEFGKTGGKYENKAYQIDFGNGYATEVVVNNVPKITPKKDVTVSLDPTSENLDGQTVQLYQTFNYRLIGGLIPQNHSEELEDYSFVDDYDQAGDQYTGNYKTFSSLNLTMKDGSVIKAGTDLTSQTTAETDATNGIVTVRFKEDFLQKISLDSPFQAETYLQMRRIAIGTFENTYVNTVNKVAYASNTVRTTTPIPRTPDKPTPIPTPKPKDP
notes: range 39-1433
B3: iSRCR123 (Deglycosylated) (receptor)
chain: not shown
notes: domain: SRCR123; also called deglycosylated iSRCR123
B4: iSRCR1 (receptor, not shown: small tags and cut ends)
chain: not shown
notes: domain: SRCR1; also called SRCRs; iSRCRs

What was measured:
[1] = biological target: T1, A3VP1^AgI/II; test: SPR, analyte over ligand deglycosylated on the CM5 chip, 1:1 Langmuir model
[2] = biological target: T2, C123^AgI/II; test: as above
[3] = biological target: B2; test: as above
[4] = biological target: T3, FL^AgI/II (S. mutans UA159 Antigen I/II, full length recombinant construct) (Streptococcus mutans UA159, UniProt P23504 39-1562); test: as above
T3 construct: also called CG14
T3 sequence (P23504 39-1562): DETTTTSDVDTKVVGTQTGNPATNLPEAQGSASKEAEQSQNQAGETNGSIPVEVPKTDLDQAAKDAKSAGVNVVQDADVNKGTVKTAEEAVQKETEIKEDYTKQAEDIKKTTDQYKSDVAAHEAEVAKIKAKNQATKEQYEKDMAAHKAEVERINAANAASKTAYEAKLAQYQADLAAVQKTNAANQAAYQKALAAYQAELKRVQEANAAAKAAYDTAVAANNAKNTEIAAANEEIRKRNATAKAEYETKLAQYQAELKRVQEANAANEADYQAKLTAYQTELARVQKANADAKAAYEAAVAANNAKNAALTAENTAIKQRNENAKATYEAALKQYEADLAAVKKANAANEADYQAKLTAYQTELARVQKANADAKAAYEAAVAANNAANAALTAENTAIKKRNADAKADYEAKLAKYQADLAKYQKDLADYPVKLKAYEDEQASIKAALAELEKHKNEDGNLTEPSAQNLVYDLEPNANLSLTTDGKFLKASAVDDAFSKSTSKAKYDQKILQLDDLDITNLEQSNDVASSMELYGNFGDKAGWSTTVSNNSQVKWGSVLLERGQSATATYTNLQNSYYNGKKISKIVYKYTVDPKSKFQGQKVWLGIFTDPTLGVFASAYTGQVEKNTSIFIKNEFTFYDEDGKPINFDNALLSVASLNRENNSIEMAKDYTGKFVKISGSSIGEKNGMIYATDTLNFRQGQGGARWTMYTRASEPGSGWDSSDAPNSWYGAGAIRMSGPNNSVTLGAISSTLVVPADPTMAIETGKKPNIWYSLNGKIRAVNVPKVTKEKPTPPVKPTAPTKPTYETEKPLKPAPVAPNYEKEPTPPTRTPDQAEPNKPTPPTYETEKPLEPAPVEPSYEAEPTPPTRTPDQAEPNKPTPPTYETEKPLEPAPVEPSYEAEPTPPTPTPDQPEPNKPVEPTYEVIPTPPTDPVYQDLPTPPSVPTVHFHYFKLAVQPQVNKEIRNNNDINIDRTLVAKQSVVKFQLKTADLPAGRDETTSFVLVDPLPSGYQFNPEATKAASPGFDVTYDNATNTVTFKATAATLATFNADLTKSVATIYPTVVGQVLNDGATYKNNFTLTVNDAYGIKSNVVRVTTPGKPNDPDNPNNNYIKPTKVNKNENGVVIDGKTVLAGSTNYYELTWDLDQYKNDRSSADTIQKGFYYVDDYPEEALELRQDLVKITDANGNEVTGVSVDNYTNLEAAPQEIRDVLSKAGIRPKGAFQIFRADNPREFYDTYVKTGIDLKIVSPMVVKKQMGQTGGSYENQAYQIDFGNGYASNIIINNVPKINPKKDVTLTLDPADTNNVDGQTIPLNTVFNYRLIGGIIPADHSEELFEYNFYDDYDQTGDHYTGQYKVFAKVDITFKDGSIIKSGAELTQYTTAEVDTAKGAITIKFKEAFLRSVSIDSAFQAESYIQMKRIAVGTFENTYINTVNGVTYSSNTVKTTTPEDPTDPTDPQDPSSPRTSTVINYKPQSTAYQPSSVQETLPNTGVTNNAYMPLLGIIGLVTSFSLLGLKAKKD

[5] = biological target: salivary agglutinin (SAG) (human, UniProt Q9UGM3 20-2413); test: SPR, analyte over SAG immobilized on CM5 chip, 1:1 Langmuir model
Chain of salivary agglutinin (SAG) (Q9UGM3 whole entry): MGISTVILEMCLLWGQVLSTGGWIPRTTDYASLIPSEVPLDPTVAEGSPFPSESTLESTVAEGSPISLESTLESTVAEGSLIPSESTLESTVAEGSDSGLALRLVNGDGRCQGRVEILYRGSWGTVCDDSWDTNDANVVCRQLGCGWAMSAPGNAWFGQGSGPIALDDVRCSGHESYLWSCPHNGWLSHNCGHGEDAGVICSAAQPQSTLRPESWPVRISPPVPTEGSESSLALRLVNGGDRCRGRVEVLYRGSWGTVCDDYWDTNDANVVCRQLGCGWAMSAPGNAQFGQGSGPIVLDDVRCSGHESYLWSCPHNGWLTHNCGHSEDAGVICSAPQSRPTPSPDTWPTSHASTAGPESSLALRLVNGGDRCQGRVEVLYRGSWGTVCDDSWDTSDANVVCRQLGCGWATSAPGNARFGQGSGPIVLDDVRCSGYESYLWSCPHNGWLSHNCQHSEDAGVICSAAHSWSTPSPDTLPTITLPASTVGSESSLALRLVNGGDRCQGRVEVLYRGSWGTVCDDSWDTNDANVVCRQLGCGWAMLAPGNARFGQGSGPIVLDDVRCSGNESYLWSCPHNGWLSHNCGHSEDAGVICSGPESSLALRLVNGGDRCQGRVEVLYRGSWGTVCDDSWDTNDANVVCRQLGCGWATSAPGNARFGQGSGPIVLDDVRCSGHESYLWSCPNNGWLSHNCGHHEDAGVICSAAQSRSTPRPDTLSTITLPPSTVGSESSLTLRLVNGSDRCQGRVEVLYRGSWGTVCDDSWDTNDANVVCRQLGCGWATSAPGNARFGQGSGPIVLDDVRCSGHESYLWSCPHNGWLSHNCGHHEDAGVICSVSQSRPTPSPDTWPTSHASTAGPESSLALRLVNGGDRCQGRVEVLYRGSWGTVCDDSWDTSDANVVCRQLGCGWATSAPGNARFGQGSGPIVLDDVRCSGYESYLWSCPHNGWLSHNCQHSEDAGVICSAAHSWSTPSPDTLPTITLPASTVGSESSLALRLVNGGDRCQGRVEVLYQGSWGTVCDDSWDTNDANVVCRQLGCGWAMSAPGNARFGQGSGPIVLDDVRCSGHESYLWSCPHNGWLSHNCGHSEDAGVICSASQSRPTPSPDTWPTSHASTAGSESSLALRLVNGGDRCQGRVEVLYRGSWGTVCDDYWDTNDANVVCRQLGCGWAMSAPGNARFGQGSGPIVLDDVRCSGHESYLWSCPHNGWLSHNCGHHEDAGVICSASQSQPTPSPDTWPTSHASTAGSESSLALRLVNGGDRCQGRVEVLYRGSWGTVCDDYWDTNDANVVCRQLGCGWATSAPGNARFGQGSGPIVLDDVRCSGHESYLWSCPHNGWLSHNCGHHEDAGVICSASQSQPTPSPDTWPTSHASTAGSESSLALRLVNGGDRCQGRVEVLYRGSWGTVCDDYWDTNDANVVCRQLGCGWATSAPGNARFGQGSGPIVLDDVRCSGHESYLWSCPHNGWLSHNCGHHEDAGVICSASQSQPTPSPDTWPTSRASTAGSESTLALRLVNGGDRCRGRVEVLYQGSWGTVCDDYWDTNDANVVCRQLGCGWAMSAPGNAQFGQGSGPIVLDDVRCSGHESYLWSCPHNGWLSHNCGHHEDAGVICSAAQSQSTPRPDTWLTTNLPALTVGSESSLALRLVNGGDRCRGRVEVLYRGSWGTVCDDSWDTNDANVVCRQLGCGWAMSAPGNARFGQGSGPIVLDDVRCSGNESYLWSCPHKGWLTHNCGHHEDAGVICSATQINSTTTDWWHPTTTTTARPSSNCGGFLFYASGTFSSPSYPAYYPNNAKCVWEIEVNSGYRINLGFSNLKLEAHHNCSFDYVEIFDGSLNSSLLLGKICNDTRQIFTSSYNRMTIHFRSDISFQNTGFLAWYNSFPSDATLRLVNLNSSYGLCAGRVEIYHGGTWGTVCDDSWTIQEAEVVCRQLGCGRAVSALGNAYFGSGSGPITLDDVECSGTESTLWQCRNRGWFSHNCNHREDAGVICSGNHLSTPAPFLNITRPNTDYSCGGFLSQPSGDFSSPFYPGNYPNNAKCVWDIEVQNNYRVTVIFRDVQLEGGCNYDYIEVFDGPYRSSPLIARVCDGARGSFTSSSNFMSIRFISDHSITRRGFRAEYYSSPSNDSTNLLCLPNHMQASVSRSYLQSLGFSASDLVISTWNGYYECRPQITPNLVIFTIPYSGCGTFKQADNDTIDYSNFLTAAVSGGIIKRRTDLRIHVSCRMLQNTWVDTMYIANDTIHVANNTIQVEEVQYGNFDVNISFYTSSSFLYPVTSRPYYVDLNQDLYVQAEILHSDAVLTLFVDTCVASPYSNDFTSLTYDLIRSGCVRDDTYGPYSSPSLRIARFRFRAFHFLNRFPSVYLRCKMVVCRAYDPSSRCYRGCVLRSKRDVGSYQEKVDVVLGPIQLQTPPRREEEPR

[6] = biological target: T1, A3VP1^AgI/II; test: SPR, analyte over ligand immobilized on CM5 chip, 1:1 Langmuir model; SPR with calcium; immobilized iSRCR1, not deglycosylated
[7] = biological target: T2, C123^AgI/II; test: as above
[8] = biological target: B2; test: as above
[9] = biological target: T3, FL^AgI/II (S. mutans UA159 Antigen …); test: as above
[10] = biological target: T4, iSRCR123 (human, UniProt Q9UGM3 102-463); test: SPR, analyte over immobilized iSRCR1; quantity and unit not printed beside the number, unit taken from the paragraph's 'nanomolar affinities'
T4 construct: domain: SRCR123; also called SRCRs; iSRCRs
T4 sequence (Q9UGM3 102-463 limits assumed): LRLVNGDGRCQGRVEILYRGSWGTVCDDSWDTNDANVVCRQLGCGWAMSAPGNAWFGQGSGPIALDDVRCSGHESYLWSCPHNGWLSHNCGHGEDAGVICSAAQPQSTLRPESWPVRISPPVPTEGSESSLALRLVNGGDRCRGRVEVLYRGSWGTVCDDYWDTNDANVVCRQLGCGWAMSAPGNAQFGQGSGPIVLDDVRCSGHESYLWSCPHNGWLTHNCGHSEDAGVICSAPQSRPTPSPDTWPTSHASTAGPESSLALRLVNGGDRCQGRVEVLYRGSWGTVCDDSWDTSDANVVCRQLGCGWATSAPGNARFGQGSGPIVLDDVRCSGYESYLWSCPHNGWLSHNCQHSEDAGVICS

[11] = biological target: T4, iSRCR123; test: SPR, analyte over immobilized iSRCR123; quantity and unit not printed beside the number, told as 'nanomolar affinities'

Binder	Ka [1] [M⁻¹]	Kd [1] [nM]	koff [1] [s⁻¹]	kon [1] [M⁻¹ s⁻¹]	Ka [2] [M⁻¹]	Kd [2] [nM]	koff [2] [s⁻¹]	kon [2] [M⁻¹ s⁻¹]	Ka [3] [M⁻¹]	Kd [3] [nM]	koff [3] [s⁻¹]	kon [3] [M⁻¹ s⁻¹]	Ka [4] [M⁻¹]	Kd [4] [nM]	koff [4] [s⁻¹]	kon [4] [M⁻¹ s⁻¹]	further results
B1	1.92e+06	520	0.00274	5270	48100	20800	0.0246	1180	7.97e+06	125	0.00104	8300	865000	1160	0.0575	49700	–
B2	–	–	–	–	–	–	–	–	–	–	–	–	–	–	–	–	Ka [5]: 1.63e+08 M⁻¹; Kd [5]: 6.15 nM; koff [5]: 0.00197 s⁻¹; kon [5]: 320000 M⁻¹ s⁻¹
B3	1.22e+06	818	0.00333	4070	458000	2180	0.00658	3010	5.24e+06	191	0.00132	6920	6.82e+06	147	0.000464	3160	–
B4	–	–	–	–	–	–	–	–	–	–	–	–	–	–	–	–	Ka [6]: 8.57e+06 M⁻¹; Kd [6]: 117 nM; koff [6]: 0.00327 s⁻¹; kon [6]: 28000 M⁻¹ s⁻¹; Ka [7]: 6.46e+06 M⁻¹; Kd [7]: 151 nM; koff [7]: 0.00232 s⁻¹; kon [7]: 15400 M⁻¹ s⁻¹; Ka [8]: 3.91e+06 M⁻¹; Kd [8]: 256 nM; koff [8]: 0.00237 s⁻¹; kon [8]: 9250 M⁻¹ s⁻¹; Ka [9]: 1.31e+08 M⁻¹; Kd [9]: 7.69 nM; koff [9]: 0.000976 s⁻¹; kon [9]: 127000 M⁻¹ s⁻¹; Kd [10]: 5.68 nM; Kd [11]: 1.2 nM
